# Measured values from patent publication US11160888B2, “PET tracer for imaging of neuroendocrine tumors” (priority 2011, dated 2021).
# Key:
# neuroendocrine tumor = assay: Comparative lesion detection, 64Cu-DOTATATE PET versus 111In-DTPA-octreotide SPECT; type: in vivo, human
# Excerpt: (§1) Fourteen consecutively enrolled patients participated in this pilot study and underwent PET scanning with the new tracer on several time points. Patients were eligible in case of a histopathologically confirmed neuroendocrine tumor including positive immunostainings for chromogranin A and synaptophysin. They got offered study inclusion in case of referral to conventional SRI as part of routine follow-up. The maximum allowed time interval between both imaging modalities was 60 days. According to local clinical routine there was no need for interruption of biotherapy e.g. withdrawal of long- or short-time acting somatostatin analogs. However, patients must not have undergone major surgical interventions or systemic chemotherapy between conventional SRI and the PET scanning. The study group consisted of thirteen patients with gastroenteropancreatic neuroendocrine tumors (2 foregut, 6 midgut, 5 NET of unknown origin) and one patient with a known mutation in the multiple endocrine neoplasia I gene, who was diagnosed with a bronchogenic NET ten years ago. Age ranged from 40-80 years. Gender distribution: four women, ten men. Ten of the tumors were active functioning causing classical carcinoid syndromes mainly due to hepatic tumor load. One patient had shown clinical and biochemical manifestations of a Zollinger-Ellison syndrome at time of diagnosis. Twelve patients were in advanced disease state—TNM stage IV according to most recently both UICC/AJCC and ENETS classifications. Two patients had undergone respectively R0- and R1-resections, both without detectable disease so far. Patient recruiting and follow-up was carried out at the Department of Abdominal Surgery C. SRI was performed at the Department of Clinical Physiology, Nuclear Medicine and PET. Both departments are part of the Neuroendocrine Tumor Center of Excellence, Rigshospitalet, University of Copenhagen, Denmark. All patients had given written informed consent prior to inclusion. The study was approved by the Danish Medicines Agency and the Regional Research Ethics Committee.
# (§2) PET-CT images were acquired on an integrated PET-CT Siemens Biograph True X, multi-slice. […] Imaging was performed 1h, 3h and 24h after injection.
# ^111In-pentreotide was intravenously applied with a target dose of 200 MBq. The scans consisted of whole body planar scintigraphy and SPECT-CT: Planar images were acquired at 24 h (anterior and posterior whole-body scan, scan speed 5 cm/min, 512*1.024 matrix) and at 48 h (15 min static planar image (256*256 matrix) of the abdomen using a large field of view medium-energy collimator (Precedence 16-slice scanner, Philips Healthcare; VG Hawkeye, GE Healthcare). SPECT (20 sec/step, 128 angles, 128*128 matrix) over the abdomen was obtained at 24 or 48 h, and included also the chest if a pathological focus was suspected from the whole body scan. A low-dose CT was used as anatomical guide and for attenuation correction. SPECT and CT were fused and reviewed on dedicated workstations (EBW, Philips Healthcare; eNTEGRA, GE Healthcare).
# Planar whole-body scans/SPECT-CT and PET-CT images were evaluated by two separate teams consisting of both a nuclear medicine physician and a radiologist. Both teams were briefed about the patients past medical history. When abnormal findings only detected on co-registered CT had led the attention to a specific anatomical site, this particular region was revaluated using the molecular imaging data. Judged visually, there also had to be clearly detectable lesion to be accounted as true SRI positive as this was the main focus of interest of the present study. However, all lesions were documented, whether identified on CT images or by SRI. Findings were reported according to their respective anatomical site and if possible absolute numbers of lesions per organ system.
# [1] = in vivo
# [2] = human, in vivo
# Excerpt: No additional radiochemical purification step was required. […] The mean administered activity was 207 6 10 MBq (range, 193-232 MBq). […] This side effect was probably due to the somatostatin analog contained in the tracer.
# [3] = 64Cu-DOTATATE PET biodistribution by SUV quantitation in neuroendocrine tumor patients; conditions: both, human, pituitary, adrenals, spleen, iv, 200 MBq, total radioactivity
# Excerpt: as §1, §2
# (§3) Planar whole-body scans/SPECT-CT and PET-CT images were evaluated by two separate teams consisting of both a nuclear medicine physician and a radiologist. Both teams were briefed about the patients past medical history. When abnormal findings only detected on co-registered CT had led the attention to a specific anatomical site, this particular region was revaluated using the molecular imaging data. Judged visually, there also had to be clearly detectable lesion to be accounted as true SRI positive as this was the main focus of interest of the present study. However, all lesions were documented, whether identified on CT images or by SRI. Findings were reported according to their respective anatomical site and if possible absolute numbers of lesions per organ system. […] While still remaining blinded to the opposite SRI results, this disparity was tried to balance by additionally providing the team evaluating ^111In-pentreotide SPECT-CT scans with the findings from contrast enhanced diagnostic CT. Interpretation of conventional SRI was performed based on the knowledge of normal tissue accumulation of ^111In-pentreotide. Interpretation of the findings from the new PET method was carried out in a similar manner being aware of possible differences regarding residence times and excretion patterns of the new tracer. Confirmation of the pointed-out lesions was sought by routine follow-up including CT, MRI, conventional SRI and biopsy if possible. Newly detected lesions on co-registered CT imaging were accepted for confirmations as well. Semi-quantitative analysis of tissue radioactivity concentrations was performed by drawing volumes of interests (VOI) around detected lesions and encompassing normal tissues with appreciable tracer uptake on fused PET-CT images.
# somatostatin receptor = assay: as above
# Excerpt: as §1, §2, §3
structure (smiles),measurement,setting,value
"CC(O)[C@H](NC(=O)[C@@H]1CSSC[C@H](NC(=O)[C@@H](Cc2ccccc2)NC(=O)CN2CCN(CC(=O)O)CCN(CC(=O)O)CCN(CC(=O)O)CC2)C(=O)N[C@@H](Cc2ccc(O)cc2)C(=O)N[C@H](Cc2c[nH]c3ccccc23)C(=O)N[C@@H](CCCCN)C(=O)N[C@@H](C(C)O)C(=O)N1)C(=O)O (stereo partly shown) [64Cu-DOTATATE, metal not drawn]",image quality compared with SPECT with 111In-DTPA-octreotide,neuroendocrine tumor; PET,considerably better image quality
same,number of lymph node lesions revealed,neuroendocrine tumor; all 14 patients,98
same,Number and localization of lesions detected,neuroendocrine tumor; patient no. 2,Negative
same,Number and localization of lesions detected,neuroendocrine tumor; patient no. 4,Negative
same,Number and localization of lesions detected,neuroendocrine tumor; patient no. 5,Lymph nodes (>30)
same,Number and localization of lesions detected,neuroendocrine tumor; patient no. 7,"Pancreas (1), liver (>10) bones (>10)"
same,Number and localization of lesions detected,neuroendocrine tumor; patient no. 10,Lymph nodes (10)
same,Number and localization of lesions detected,neuroendocrine tumor; patient no. 11,Liver (>10)
same,absorbed dose,[1],0.19 mGy/MBq
same,estimated effective dose,[1],6.3 mSv
same,adverse or clinically detectable pharmacologic effects,[2],no adverse or clinically detectable pharmacologic effects
same,changes in vital signs,[2],No significant changes
same,subjects who experienced self-limiting nausea,[2],4 subjects
same,SUV,[3],≤ 20 SUV
same,activity distribution on late scan,somatostatin receptor; 24 h after injection,activity washout from most organs and lesions
same,SUVmax range,"somatostatin receptor; bone lesions, 1 h",30-117
same,SUVmax range,"somatostatin receptor; bone lesions, 3 h",27-111
same,"tracer accumulation category (high, moderate, faint)",somatostatin receptor; liver and spleen,Moderate to high
same,SUVmax range,"somatostatin receptor; liver lesions, 1 h",20-81
same,SUVmax range,"somatostatin receptor; liver lesions, 3 h",26-81
same,SUVmax range,"somatostatin receptor; lymph nodes (lesions), 1 h",9-110
same,SUVmax range,"somatostatin receptor; lymph nodes (lesions), 3 h",9-115
same,"tracer accumulation category (high, moderate, faint)","somatostatin receptor; pituitary, adrenal glands, kidneys, renal pelvis, urinary bladder",High
same,"tracer accumulation category (high, moderate, faint)","somatostatin receptor; salivary glands, in 12 of 14 patients",faint to moderate
same,"tracer accumulation category (high, moderate, faint)","somatostatin receptor; thyroid gland, in 2 patients",moderate
